{
  "source": "paper PMC9881170",
  "key": {"[1]": {"biological_target": "55S mitoribosome (re-associated);mtIF2;mtIF3 (Homo sapiens (HEK293S TetR GnTI-);Homo sapiens;Homo sapiens) (UniProt P46199+Q9H2K0)", "sequence (P46199 whole entry, looked up, tested part not stated)": "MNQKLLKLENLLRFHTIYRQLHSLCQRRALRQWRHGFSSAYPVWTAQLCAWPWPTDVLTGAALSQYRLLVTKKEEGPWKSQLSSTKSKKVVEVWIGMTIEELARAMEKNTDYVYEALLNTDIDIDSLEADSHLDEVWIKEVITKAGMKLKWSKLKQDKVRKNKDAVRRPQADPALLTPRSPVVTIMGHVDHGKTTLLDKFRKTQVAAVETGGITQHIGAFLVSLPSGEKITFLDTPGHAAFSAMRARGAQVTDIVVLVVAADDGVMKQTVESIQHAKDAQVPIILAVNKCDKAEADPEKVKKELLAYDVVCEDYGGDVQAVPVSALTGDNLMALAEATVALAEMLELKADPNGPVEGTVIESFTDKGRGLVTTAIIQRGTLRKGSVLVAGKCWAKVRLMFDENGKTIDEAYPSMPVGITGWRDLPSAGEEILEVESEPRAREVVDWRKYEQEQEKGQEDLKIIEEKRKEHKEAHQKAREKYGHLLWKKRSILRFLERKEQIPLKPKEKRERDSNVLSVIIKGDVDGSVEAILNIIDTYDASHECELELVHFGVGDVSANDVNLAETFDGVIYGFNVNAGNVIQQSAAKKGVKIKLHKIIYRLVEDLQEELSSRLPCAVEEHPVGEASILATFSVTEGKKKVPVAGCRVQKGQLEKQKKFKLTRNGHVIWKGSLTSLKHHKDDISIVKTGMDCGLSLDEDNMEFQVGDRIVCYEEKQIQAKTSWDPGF", "assay": "sucrose gradient co-sedimentation, Cy3 fluorescence", "details": "+ E. coli fMet-tRNAfMet; 200 nM 55S or 28S, 240 nM mtIF2, 240 nM mtIF3, 240 nM fMet-tRNAfMet, 400 nM mRNA; 37 C 30 min (then ice 15 min for mRNA binding); filter wash with 20 mM Mg2+ …"}, "[2]": {"biological_target": "55S mitoribosome, subunits crosslinked;mtIF2 (Homo sapiens (HEK293S TetR GnTI-);Homo sapiens) (UniProt P46199)", "assay": "sucrose gradient co-sedimentation, Cy3 fluorescence", "details": "+ E. coli fMet-tRNAfMet; no mtIF3; 200 nM 55S or 28S, 240 nM mtIF2, 240 nM mtIF3, 240 nM fMet-tRNAfMet, 400 nM mRNA; 37 C 30 min (then ice 15 min for mRNA binding); filter wash with 20 mM Mg2+ …"}, "[3]": {"biological_target": "55S mitoribosome (crude);mtIF2;mtIF3 (bovine (liver);Homo sapiens;Homo sapiens) (UniProt P46199+Q9H2K0)", "assay": "co-sedimentation", "details": "200 nM 55S or 28S, 240 nM mtIF2, 240 nM mtIF3, 240 nM fMet-tRNAfMet, 400 nM mRNA, 37 C 30 min (then ice 15 min for mRNA binding), filter wash with 20 mM Mg2+ …"}},
  "data": [
    {"substance": "AUGGCACAUGCAGCGCAAGUAGGUCUACAA [MTCO2 mRNA first 30 nt]", "values": [
      {"measurement": "binding signal (% of 55S with mRNA bound)", "setting": "[1]", "value": 50},
      {"measurement": "binding signal (% of 55S with mRNA bound)", "setting": "[2]", "value": 25}
    ]},
    {"substance": "Phe-tRNAPhe", "values": [
      {"measurement": "binding signal (% of 55S with [3H]-Phe-tRNAPhe)", "setting": "[3]; + EF-Tu, 30-nt leaderless mRNA S2, fMet-tRNAfMet", "value": 22}
    ]},
    {"substance": "fMet-tRNAfMet (35S)", "values": [
      {"measurement": "binding signal (% of 55S with [35S]-fMet-tRNAfMet)", "setting": "[3]; + 30-nt leaderless mRNA S2, EF-Tu, Phe-tRNAPhe", "value": 27}
    ]}
  ]
}
